Here are results for one molecule from patent US20190330331A1 (BLOOM DIAGNOSTICS, published 2019).

The experiment has as its target T1, recombinant yeast-expressed His-tagged full-length AMH comprising amino acids 26-560 of human AMH (human, UniProt P03971 26-560).
T1 construct: Bought protein (Antikörper Online, ABIN2524475); also called recombinant AMH; human Anti-Müllerian hormone
T1 sequence: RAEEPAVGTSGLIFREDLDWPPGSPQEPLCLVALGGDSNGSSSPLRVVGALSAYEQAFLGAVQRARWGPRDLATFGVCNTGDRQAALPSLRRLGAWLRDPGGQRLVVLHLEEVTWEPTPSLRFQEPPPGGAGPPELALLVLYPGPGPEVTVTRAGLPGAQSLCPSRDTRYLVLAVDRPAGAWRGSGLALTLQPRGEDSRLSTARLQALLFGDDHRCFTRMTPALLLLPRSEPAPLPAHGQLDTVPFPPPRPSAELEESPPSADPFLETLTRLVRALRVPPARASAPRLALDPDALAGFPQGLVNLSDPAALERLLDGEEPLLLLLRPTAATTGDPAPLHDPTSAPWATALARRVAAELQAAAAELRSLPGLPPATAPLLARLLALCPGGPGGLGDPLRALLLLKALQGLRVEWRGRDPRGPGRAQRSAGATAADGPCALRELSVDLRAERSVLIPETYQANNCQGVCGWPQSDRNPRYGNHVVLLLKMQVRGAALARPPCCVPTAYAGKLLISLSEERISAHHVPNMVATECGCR
The experiment can be described thus: SPR (Biacore T200), AMH amine-coupled to the chip, antibody as analyte, bivalent-analyte model. Here is the method:
Surface-plasmon-resonance (SPR) measurements were performed using a Biacore T200 facility, control software version 2.0, and Series S sensor-chips carboxymethyl dextran chip type 5 (CMS, GE Healthcare Bio-Sciences AB, Uppsala, Sweden). The system was operating at 25° C. in running buffer HBSP (10 mmol/L 4-(2-hydroxyethyl)piperazine-1-ethanesulfonic acid (Hepes), 150 mmol/L NaCl., 0.05% Tween 20, pH 7.4). AMH was transferred to 10 mmol/L sodium acetate buffer pH 4.0 by passing it through a NAPS column (GE Healthcare) before immobilization by amine coupling (Biacore Sensor Surface Handbook). The carboxyl groups on the chip were activated with an mixture containing 200 mM 1-ethyl-3-(3-dimethylaminopropyl)-carbodiimide hydrochloride (EDC, Sigma-Aldrich) and 50 mM N hydroxysuccinimide (NHS, Fluka) for 180 s. AMH was then injected for 150 s at a concentration of 2.5 μg/mL in, at a flow of 10 μL/min and […]. Approximately 100 resonance units (RU) of AMH were covalently bound to the flow cell. Unreacted NHS esters were blocked with 1 mol/L ethanolamine pH 8.5 for 7 min. […] Association and dissociation rates and the binding constants of the antibodies were determined using the bivalent-analyte-binding model of the Biacore evaluation software (version 2.0). […]
In general terms: SPR reads the build-up and loss of mass on a sensor chip optically.

B1: G170-FC5 (antibody, V domains shown)
VH: EVKLVESGGGLVKPGGSLKLSCAASGFIFSTYTMSWVRQTPGKRLEWVATISSGGSYTYYPDSVKGRFTISRDNAKNTLYLQMSSLRSEDTAMYYCTRHGSDYRYDGFDYWGQGTTLTVSS
VL: DILMTQSPASLSVSVGETVTITCRASENIYSNLAWYQQKQGKSPQLLVYAATNLADGVPSRFSGSGSGTQYSLKINSLQSEDFGSYYCQHFWGTPFTFGSGTKLEIK
notes: kappa primers were used for the VL; also called anti-AMH G170-FC5; anti-AMH antibody
B1: the Kd was around 1 nM.
